Data as given in publication PMC8196007.

Target: solubilized kinase domain of B-Raf (sB-Raf), unlabeled (human) (UniProt P15056)
Test: native MS; LILBID-MS of the BS3-crosslinked sample and of non-crosslinked mixtures, sB-Raf:CDC-37:FKB-6:HSP-90 = 1:1:1:1 or as indicated; 25 mM Tris, 20 mM KCl, pH 7.5

stoichiometry N: 1
B1: nematode CDC-37 (natural protein)
chain: MPIDYSKWKDIEVSDDEDDTHPNIDTPSLFRWRHQARLERMAEKKMEQEKIDKEKGTTSKKMEELEKKLAAADVTDKSDIQKQIDEVKAQEEAWRKKEAELEEKERLEPWNVDTIGHEAFSTSRINKITEKKPQAPKTDEEDTHAMSTFFETHESLLEKMAVLKNGAKSTELFLAEHPHMASEYTANWLTIEALNAAIDFNEEKMKTMAEQCIIIQYLLELSKSLNAVATNTTVQKQFFKKFEAAEPVYMKHYQDEVKAFEDRLRTRAQTKRDAAMEEAEAEEKAERMKSAPGGIDPQEVFEQLPEEMRKCFEAHDIEALKGVAQKMDEEVFKYHFDRCIASGLWVPGKADDDDDDEEAAPAEEEPTTSS
